Values belong to the binder of their own block, whether it stands above or below them. No end group written: not given here.
Assays:
[1] = biological target: VEGF receptors on HUVECs; test: competition of 125I-VEGF binding to HUVECs
[2] = biological target: endothelial cell receptor for TKPPR on human aortic endothelial cells (HAEC); test: competition on HAEC: tuftsin 5 µM against 1% BRU-114 bubbles
[3] = biological target: endothelial cell receptor for TKPPR on human aortic endothelial cells (HAEC); test: competition on HAEC: tuftsin 10 µM against 1% BRU-114 bubbles
[4] = biological target: endothelial cell receptor for TKPPR on human aortic endothelial cells (HAEC); test: competition on HAEC: tuftsin 50 µM against 1% BRU-114 bubbles
[5] = biological target: endothelial cell receptor for TKPPR on human aortic endothelial cells (HAEC); test: competition on HAEC: tuftsin 100 µM against 1% BRU-114 bubbles
[6] = biological target: endothelial cell receptor for TKPPR on human aortic endothelial cells (HAEC); test: competition on HAEC: tuftsin 25 µM against 1% BRU-114 bubbles
[7] = biological target: endothelial cell receptor for TKPPR on human aortic endothelial cells (HAEC); test: fluorescent beads on confluent HAEC, static, Experiment 1, image analysis
[8] = biological target: endothelial cell receptor for TKPPR on human aortic endothelial cells (HAEC); test: beads perfused over HAEC in a parallel plate flow cell, 1.53 dynes/cm^2

B1: TKPPR tetramer BRU-326, OG-(TKPPR)4 (peptide)
peptide: TKPPR-OH
modifications: not fully specified (N-terminus); printed as OG-(TKPPR)4; also: tetramer: four TKPPR chains joined via branched tetra-acid scaffold
- IC50 [1]: 10 µM

B3: GRGDSP-conjugated fluorescent microspheres (peptide)
peptide: GRGDSP
modifications: also: coupled by EDAC to carboxylate-modified microspheres
- Integrated density of bound beads (arbitrary units) [7]: 28.6

Other lines, results leading:

- Bubbles Bound [2]: 1150 bubbles
- Bubbles Bound [3]: 976 bubbles
- Bubbles Bound [4]: 904 bubbles
- Bubbles Bound [5]: 556 bubbles
- Bubbles Bound [6]: 1170 bubbles
B2: Tuftsin (TKPR) (peptide)
peptide: TKPR

- beads bound at 1.53 dynes/cm^2 [8]: 86 beads
- Integrated density of bound beads (arbitrary units) [7]: 230
B4: TKPPR-conjugated red fluorescent microspheres (peptide)
peptide: TKPPR
modifications: also: coupled by EDAC to carboxylate-modified microspheres
